The source of these data is IntAct's records for PubMed 29039417.

Sequences and labels used below:
B1: Protein PTHB1 (Homo sapiens), Q3SYG4 (parent)
chain: MSLFKARDWWSTILGDKEEFDQGCLCLANVDNSGNGQDKIIVGSFMGYLRIFSPHPAKTGDGAQAEDLLLEVDLRDPVLQVEVGKFVSGTEMLHLAVLHSRKLCVYSVSGTLGNVEHGNQCQMKLMYEHNLQRTACNMTYGSFGGVKGRDLICIQSMDGMLMVFEQESYAFGRFLPGFLLPGPLAYSSRTDSFLTVSSCQQVESYKYQVLAFATDADKRQETEQQKLGSGKRLVVDWTLNIGEQALDICIVSFNQSASSVFVLGERNFFCLKDNGQIRFMKKLDWSPSCFLPYCSVSEGTINTLIGNHNNMLHIYQDVTLKWATQLPHIPVAVRVGCLHDLKGVIVTLSDDGHLQCSYLGTDPSLFQAPNVQSRELNYDELDVEMKELQKIIKDVNKSQGVWPMTEREDDLNVSVVVSPNFDSVSQATDVEVGTDLVPSVTVKVTLQNRVILQKAKLSVYVQPPLELTCDQFTFEFMTPDLTRTVSFSVYLKRSYTPSELEGNAVVSYSRPTDRNPDGIPRVIQCKFRLPLKLICLPGQPSKTASHKITIDTNKSPVSLLSLFPGFASQSDDDQVNVMGFHFLGGARITVLASKTSQRYRIQSEQFEDLWLITNELILRLQEYFEKQGVKDFACSFSGSIPLQEYFELIDHHFELRINGEKLEELLSERAVQFRAIQRRLLARFKDKTPAPLQHLDTLLDGTYKQVIALADAVEENQGNLFQSFTRLKSATHLVILLIALWQKLSADQVAILEAAFLPLQEDTQELGWEETVDAAISHLLKTCLSKSSKEQALNLNSQLNIPKDTSQLKKHITLLCDRLSKGGRLCLSTDAAAPQTMVMPGGCTTIPESDLEERSVEQDSTELFTNHRHLTAETPRPEVSPLQGVSE
partner: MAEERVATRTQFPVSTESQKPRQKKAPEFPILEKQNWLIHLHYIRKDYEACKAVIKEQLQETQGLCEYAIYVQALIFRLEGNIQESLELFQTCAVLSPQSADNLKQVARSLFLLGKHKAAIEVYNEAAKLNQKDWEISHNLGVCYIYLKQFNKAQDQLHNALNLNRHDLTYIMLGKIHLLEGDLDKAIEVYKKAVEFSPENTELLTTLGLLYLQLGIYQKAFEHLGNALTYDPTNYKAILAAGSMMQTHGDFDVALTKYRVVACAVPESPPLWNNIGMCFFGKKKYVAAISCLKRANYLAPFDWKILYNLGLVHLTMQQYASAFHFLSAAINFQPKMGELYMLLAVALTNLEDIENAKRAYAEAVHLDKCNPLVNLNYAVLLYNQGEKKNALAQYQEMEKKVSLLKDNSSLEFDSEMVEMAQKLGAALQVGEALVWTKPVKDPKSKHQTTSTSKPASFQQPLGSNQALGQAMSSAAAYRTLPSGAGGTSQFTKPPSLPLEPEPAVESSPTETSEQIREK

The variants in this test derive from B1. The note with it: with bbs4_human BBS4, Q96RK4.
As to R868E, the “effect of a mutation on the interaction” value is given as “with no effect”. Under P516A stands “with no effect”; under P516K, “with no effect”; under S787E, “with no effect”. Consider E664A, for which the “effect of a mutation on the interaction” value was “with no effect”. As for I738E, the entry is “disrupting interaction strength”. As for N576K, the entry is “with no effect”. Turning to N576E, the “effect of a mutation on the interaction” value is “with no effect”.

On to G841E, for which the “effect of a mutation on the interaction” value was “with no effect”. Take G841K: the “effect of a mutation on the interaction” value was “with no effect”. Under I550E stands “with no effect”. In the case of T589I, the “effect of a mutation on the interaction” value is reported as “disrupting interaction strength”. Under Q447A stands “with no effect”; under A831K, “with no effect”; under P758A, “with no effect”. As for P758K, the entry is “with no effect”; as for L642K, “with no effect”. For the variant D762A, the “effect of a mutation on the interaction” value was “with no effect”. For the variant G579A, the “effect of a mutation on the interaction” value is “with no effect”. Under T543E stands “with no effect”; under H867K, “with no effect”.

Regarding K728E, the “effect of a mutation on the interaction” value is recorded as “with no effect”.

Turning to T473K, the “effect of a mutation on the interaction” value is given as “with no effect”. Under T473E stands “with no effect”; under P691L, “disrupting interaction strength”. Under Y508K stands “with no effect”. Take K454E: the “effect of a mutation on the interaction” value is “with no effect”. V461E: the “effect of a mutation on the interaction” value was “with no effect”. Take L740A: the “effect of a mutation on the interaction” value is given as “with no effect”. Regarding S849E, the “effect of a mutation on the interaction” value is recorded as “with no effect”. As for T512E, the entry is “with no effect”; as for V734K, “with no effect”. As for V879A, the entry is “with no effect”; as for S561A, “with no effect”. Under N420A stands “with no effect”; under I735A, “with no effect”. As for L620A, the “effect of a mutation on the interaction” value is given as “with no effect”. As for L681E, the entry is “with no effect”; as for P641E, “with no effect”.

Consider Q471E, for which the “effect of a mutation on the interaction” value was “with no effect”. Under T702A stands “with no effect”. Under T702K stands “with no effect”; under T702R, “disrupting interaction strength”. As for Q760E, the entry is “with no effect”; as for L611A, “with no effect”; as for G585K, “with no effect”. Consider T482E, for which the “effect of a mutation on the interaction” value is given as “with no effect”.

On to F487S, for which the “effect of a mutation on the interaction” value is “disrupting interaction strength”.

Consider K809E, for which the “effect of a mutation on the interaction” value is recorded as “with no effect”. Under R683A stands “with no effect”; under L562K, “with no effect”. Under G701E stands “disrupting interaction strength”; under N553A, “with no effect”. As for V885K, the entry is “with no effect”; as for H732E, “with no effect”; as for V713A, “with no effect”.

Turning to V437K, the “effect of a mutation on the interaction” value was “with no effect”. As for V437E, the entry is “with no effect”; as for R824A, “with no effect”; as for G565A, “with no effect”. Under G565K stands “with no effect”.

As to S545A, the “effect of a mutation on the interaction” value is “with no effect”.

Regarding D631E, the “effect of a mutation on the interaction” value was “with no effect”. As for G502A, the entry is “with no effect”; as for L815K, “with no effect”.

On to L815A, for which the “effect of a mutation on the interaction” value is on record as “with no effect”. Under A690V stands “disrupting interaction strength”.

As to K626E, the “effect of a mutation on the interaction” value is reported as “with no effect”. As for I588K, the entry is “with no effect”; as for L609A, “with no effect”. Under L609K stands “with no effect”. As for L655E, the entry is “with no effect”; as for D470K, “with no effect”. On to I612E, for which the “effect of a mutation on the interaction” value was “with no effect”.

In the case of E753A, the “effect of a mutation on the interaction” value is listed as “with no effect”.

In the case of R619A, the “effect of a mutation on the interaction” value was “with no effect”. S507A: the “effect of a mutation on the interaction” value was “with no effect”. With E857K, the “effect of a mutation on the interaction” value is “with no effect”.

Turning to I601K, the “effect of a mutation on the interaction” value was “with no effect”. As for Q742E, the entry is “with no effect”; as for Q742K, “with no effect”; as for Q742A, “with no effect”. In the case of N716E, the “effect of a mutation on the interaction” value is “with no effect”. Under P537K stands “with no effect”; under K743A, “with no effect”; under F653K, “with no effect”. Under I640K stands “with no effect”; under P564S, “disrupting interaction strength”; under D571E, “with no effect”. Under S745A stands “with no effect”; under S745E, “disrupting interaction strength”; under S745K, “with no effect”. T805K: the “effect of a mutation on the interaction” value is “with no effect”. Under T441E stands “with no effect”. Under V575E stands “with no effect”. S806A: the “effect of a mutation on the interaction” value is “with no effect”. As for T829E, the entry is “with no effect”. As for A544K, the entry is “with no effect”; as for C783A, “with no effect”. As for S729K, the entry is “with no effect”; as for S729A, “with no effect”. Regarding D409K, the “effect of a mutation on the interaction” value is given as “with no effect”. S637A: the “effect of a mutation on the interaction” value was “with no effect”. As for E654K, the entry is “disrupting interaction strength”.

For S439E, the “effect of a mutation on the interaction” value was “with no effect”. On to K547A, for which the “effect of a mutation on the interaction” value is reported as “with no effect”. For L536E, the “effect of a mutation on the interaction” value is “with no effect”. As for Q453A, the entry is “with no effect”. With Q453E, the “effect of a mutation on the interaction” value is recorded as “with no effect”. For E715A, the “effect of a mutation on the interaction” value is listed as “with no effect”.

Consider C843E, for which the “effect of a mutation on the interaction” value is listed as “with no effect”. As to E622K, the “effect of a mutation on the interaction” value is on record as “with no effect”. Under S488K stands “with no effect”; under S488A, “with no effect”. As for Q748L, the entry is “disrupting interaction strength”. Consider S509P, for which the “effect of a mutation on the interaction” value was “disrupting interaction strength”. As for R656A, the entry is “with no effect”; as for L662K, “with no effect”. Under Q621E stands “with no effect”; under S486A, “with no effect”; under K704E, “with no effect”. Under T813E stands “with no effect”. In the case of L529E, the “effect of a mutation on the interaction” value is “with no effect”. As for S723E, the entry is “with no effect”; as for A730E, “with no effect”. Consider A746K, for which the “effect of a mutation on the interaction” value is listed as “with no effect”. Under D817K stands “with no effect”. Under F636K stands “with no effect”. As for Q672E, the entry is “with no effect”; as for E862A, “with no effect”; as for Q627K, “with no effect”. For L766A, the “effect of a mutation on the interaction” value is “with no effect”.

Turning to G584A, the “effect of a mutation on the interaction” value is reported as “with no effect”. For L819A, the “effect of a mutation on the interaction” value is given as “with no effect”.

Turning to M837K, the “effect of a mutation on the interaction” value is “with no effect”. Under A682K stands “with no effect”.

As for F756A, the “effect of a mutation on the interaction” value was “with no effect”. As for A792E, the entry is “with no effect”; as for T871A, “with no effect”.

Turning to R514K, the “effect of a mutation on the interaction” value was “with no effect”. Under I707E stands “with no effect”; under F646K, “with no effect”.

As to F646E, the “effect of a mutation on the interaction” value is given as “with no effect”. In the case of K630E, the “effect of a mutation on the interaction” value is “with no effect”.

V489A: the “effect of a mutation on the interaction” value is listed as “with no effect”. Under R521E stands “with no effect”; under R876K, “with no effect”; under R876E, “with no effect”. As for A427K, the entry is “with no effect”; as for K526E, “with no effect”. Q798E: the “effect of a mutation on the interaction” value is recorded as “with no effect”. Under I617E stands “with no effect”.

Consider M839K, for which the “effect of a mutation on the interaction” value is reported as “with no effect”. On to Q602A, for which the “effect of a mutation on the interaction” value is listed as “with no effect”. For the variant E852K, the “effect of a mutation on the interaction” value is “with no effect”. As for Y495K, the entry is “with no effect”; as for A832E, “with no effect”; as for N515C, “disrupting interaction strength”. Consider S568E, for which the “effect of a mutation on the interaction” value was “with no effect”. In the case of S785K, the “effect of a mutation on the interaction” value was “disrupting interaction strength”. Consider E660A, for which the “effect of a mutation on the interaction” value is on record as “with no effect”.

For D410A, the “effect of a mutation on the interaction” value was “with no effect”.

On to V450A, for which the “effect of a mutation on the interaction” value was “with no effect”. As for L559F, the entry is “disrupting interaction strength”; as for P802A, “with no effect”. With Q574K, the “effect of a mutation on the interaction” value is “with no effect”. As for V629A, the entry is “with no effect”; as for W741A, “with no effect”; as for S667K, “with no effect”. As for N800A, the entry is “with no effect”. For the variant V432E, the “effect of a mutation on the interaction” value is “with no effect”. Under T405K stands “with no effect”; under D696K, “with no effect”. Under V416E stands “with no effect”.

As to V706E, the “effect of a mutation on the interaction” value is on record as “with no effect”. As for Y623A, the entry is “with no effect”. Under T845A stands “with no effect”; under S418K, “with no effect”. Under I519A stands “with no effect”; under G659A, “with no effect”.
